Measurements from article doi:10.1101/2023.06.09.544295 (bioRxiv, 2023).

Experiments:
CMKLR1 = test system: CMKLR1; parameters: method as in 4 sources, one per row (each row's own in cited_ref): ref [28] = [28]; PMID 25437209; doi:10.1371/journal.pone.0112925; 28 Graham K. L. A novel CMKLR1 small molecule antagonist suppresses CNS autoimmune inflammatory disease. PLoS One 9 , e112925 , doi: 10.1371/journal.pone.0112925 ( 2014 ). 25437209 PMC4249827 ||| ref [9] = [9]; PMID 25548799; doi:10.1007/s00011-014-0792-7; 9 Mariani F. & Roncucci L. Chemerin/chemR23 axis in inflammation onset and resolution. Inflamm Res 64 , 85 – 95 , doi: 10.1007/s00011-014-0792-7 ( 2015 ). 25548799 ||| ref [25]–[27] = [25]; PMID 17339491; doi:10.4049/jimmunol.178.6.3912; 25 Arita M. Resolvin E1 selectively interacts with leukotriene B4 receptor BLT1 and ChemR23 to regulate inflammation. J Immunol 178 , 3912 – 3917 , doi: 10.4049/jimmunol.178.6.3912 ( 2007 ). 17339491 || [26]; PMID 19906641; doi:10.1074/jbc.M109.044131; 26 Ohira T. Resolvin E1 receptor activation signals phosphorylation and phagocytosis. J Biol Chem 285 , 3451 – 3461 , doi: 10.1074/jbc.M109.044131 ( 2010 ). 19906641 PMC2823415 || [27]; PMID 25637017; doi:10.4049/jimmunol.1402166; 27 Herova M. , Schmid M. , Gemperle C. & Hersberger M. ChemR23, the receptor for chemerin and resolvin E1, is expressed and functional on M1 but not on M2 macrophages. J Immunol 194 , 2330 – 2337 , do ||| ref [2]–[5] = [2]; PMID 17635925; doi:10.1074/jbc.M700793200; 2 Goralski K. B. Chemerin, a novel adipokine that regulates adipogenesis and adipocyte metabolism. J Biol Chem 282 , 28175 – 28188 , doi: 10.1074/jbc.M700793200 ( 2007 ). 17635925 || [3]; PMID 17767914; doi:10.1016/j.bbrc.2007.08.104; 3 Roh S. G. Chemerin--a new adipokine that modulates adipogenesis via its own receptor. Biochem Biophys Res Commun 362 , 1013 – 1018 , doi: 10.1016/j.bbrc.2007.08.104 ( 2007 ). 17767914 || [4]; PMID 29848608; doi:10.1530/JOE-18-0174; 4 Helfer G. & Wu Q. F. Chemerin: a multifaceted adipokine involved in metabolic disorders. J Endocrinol 238 , R79 – R94 , doi: 10.1530/JOE-18-0174 ( 2018 ). 29848608 PMC6026924 || [5]; PMID 29279348; doi:10.1124/pr.116.013177; 5 Kennedy A. J. & Davenport A. P. International Union of Basic and Clinical Pharmacology CIII: Chemerin Receptors CMKLR1 (Chemerin(1)) and GPR1 (Chemerin(2)) Nomenclature, Pharmacology, and Function.; conditions: cited from earlier work
Source text: Other isoforms of chemerin due to cleavage at different sites of the C-terminal region have also been detected in vivo with ... || The apparent contradictory functional roles of CMKLR1 in inflammation may be associated with the spatiotemporal regulation of the inflammation processes in cells. It is possible that in the early stage of inflammation the CMKLR1 signaling is mainly pro-inflammatory by promoting chemotaxis and activation of DCs and macrophages; whereas at the late stage of inflammation CMKLR1 activation can induce pro-resolving pathways to dampen inflammation.

[1] = test system: primary human macrophages; test: Macrophage differentiation assay, cell surface marker expression by flow cytometry; type: cell-based
Source text: HLA-DR is a class II major histocompatibility complex cell surface molecule, a signature cell marker for antigen presenting cells (APCs), while CD86 is a selective ligand for the costimulatory molecule CD28, the activation of which is indispensable for optimal T cell prime and activation; together, HLA-DR and CD86 are signature cell surface markers for the canonical M1-like macrophages. On the other hand, CD206, the mannose receptor (MMR), is a glycosylated surface protein belonging to the scavenger receptor family. Similarly, CD163, another member of the scavenger receptor family, is the receptor for hemoglobin-haptoglobin complex. The upregulation of CD206 and CD163 in macrophages has been associated with the anti-inflammatory and tissue-repair phenotype,[33].
To generate human peripheral blood-derived macrophages, buffy coat was isolated from leukapheresis cones by Ficoll-Paque centrifugation. Monocytes were enriched from human PBMC by CD14 beads positive selection (Miltenyi Biotec) and cultured in IMDM supplanted with 10% human AB serum (omega scientific, Cat# HS-20) for 7 days for them to differentiate to macrophages.
Differentiated macrophages were then replated to low-bind plate at 0.15 million cells per 24-well plate, in 500 µl medium overnight before stimulated with various condition. […] Data were acquired on Cytek Aurora flowcytometry, analysis on Flowjo. MFI quantifications were normalized to M0 condition, and statistically analyzed by 2-way ANOVA, with Dunnett’s multiple comparisons test, all groups were pair-analyzed with M0 group as reference.

[2] = molecular target: T1, wild type human CMKLR1 with the N-terminal 28-amino acid segment of human β2-adrenergic receptor fused to its … (Homo sapiens (Human), UniProt P07550); test: cryo-EM structure of co-purified complex; chemerin9 agonist, Gβ1γ2, scFv16 and apyrase (nucleotide-free); Gαi1 carries dominant negative mutations S47N/G203A/E245A/A326S
T1 chain: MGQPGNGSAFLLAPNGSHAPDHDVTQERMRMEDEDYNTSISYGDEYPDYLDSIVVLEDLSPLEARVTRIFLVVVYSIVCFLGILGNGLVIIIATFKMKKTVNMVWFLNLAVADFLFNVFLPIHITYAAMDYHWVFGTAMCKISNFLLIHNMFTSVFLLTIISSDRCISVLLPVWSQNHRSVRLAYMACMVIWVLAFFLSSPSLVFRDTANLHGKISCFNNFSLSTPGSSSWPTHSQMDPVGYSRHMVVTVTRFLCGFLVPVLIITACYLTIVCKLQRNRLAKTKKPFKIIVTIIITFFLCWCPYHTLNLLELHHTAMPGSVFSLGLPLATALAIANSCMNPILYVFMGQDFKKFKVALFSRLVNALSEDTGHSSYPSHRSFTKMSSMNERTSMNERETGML

[3] = MFI fold-change normalized to M0, chemerin9 10 ng/mL 72 hours, IFNg 10 ng/ml plus LPS 10 ng/ml, IL-10 10 ng/ml, n=4 donors, Fig. 1a

CC[C@@H](O)/C=C/C=C\C[C@@H](O)/C=C/C=C/C=C\[C@@H](O)CCCC(=O)O [RvE1, resolvin E1]
action on CMKLR1 (in words) (CMKLR1; ref [25]–[27]): suggested to act on CMKLR1 to promote the resolution of inflammation

chemerin15: synthetic peptide corresponding to the 141–155 amino acid segment of chemerin (AGEDPHSFYFPGQFA; UniProt Q99969 141-155, looked up, fragment)
CMKLR1 agonism / anti-inflammatory effect (in words) (CMKLR1; synthetic peptides, ref [9]): stable agonists of CMKLR1 that induce anti-inflammatory effects

C[N+](C)(C)CCC(=O)c1cccc2ccccc12.[I-] [α-NETA]
potency against CMKLR1 (antagonist) (CMKLR1; small-molecule antagonist, ref [28]): low micromolar potency

B1: IL-10: reference signal molecule to induce the M2-like macrophages (protein, UniProt P22301 19-178, looked up)
Interleukin-10: SPGQGTQSENSCTHFPGNLPNMLRDLRDAFSRVKTFFQMKDQLDNLLLKESLLEDFKGYLGCQALSEMIQFYLEEVMPQAENQDPDIKAHVNSLGENLKTLRLRLRRCHRFLPCENKSKAVEQVKNAFNKLQEKGIYKAMSEFDIFINYIEAYMTMKIRN
statistical significance of marker changes ([1]; 2-way ANOVA with Dunnett's multiple comparisons vs M0, n=4): statistically insignificant
CD86 expression (in words) [1, 3]: downregulation
CD163 expression (in words) [1, 3]: upregulation
CD206 expression (in words) [1, 3]: upregulation
macrophage phenotype (in words) ([1]; overall, chemerin9 10 ng/mL, 72 hours): consistent with an anti-inflammatory phenotype

B2: dominant negative form of human Gαi1 (DNGαi1) (protein)
chain: GCTLSAEDKAAVERSKMIDRNLREDGEKAAREVKLLLLGAGESGKNTIVKQMKIIHEAGYSEEECKQYKAVVYSNTIQSIIAIIRAMGRLKIDFGDSARADDARQLFVLAGAAEEGFMTAELAGVIKRLWKDSGVQACFNRSREYQLNDSAAYYLNDLDRIAQPNYIPTQQDVLRTRVKTTGIVETHFTFKDLHFKMFDVGAQRSERKKWIHCFEGVTAIIFCVALSDYDLVLAEDEEMNRMHASMKLFDSICNNKWFTDTSIILFLNKKDLFEEKIKKSPLTICYPEYAGSNTYEEAAAYIQCQFEDLNKRKDTKEIYTHFTCSTDTKNVQFVFDAVTDVIIKNNLKDCGLF
binding result [2]: binds
